In US20110135672A1:

Columns and labels:
[1] = target: ILT2-PILRβ chimera on NFAT-GFP reporter cells (UniProt Q8NHL6); assay: cell-based or functional assay
[2] = target: ILT4 receptor on dendritic cells of ILT4 transgenic mice (UniProt Q8N423); assay: cell-based or functional assay
ILT4 receptor on dendritic cells of ILT4 transgenic mice, sequence (Q8N423 22-597 limits assumed): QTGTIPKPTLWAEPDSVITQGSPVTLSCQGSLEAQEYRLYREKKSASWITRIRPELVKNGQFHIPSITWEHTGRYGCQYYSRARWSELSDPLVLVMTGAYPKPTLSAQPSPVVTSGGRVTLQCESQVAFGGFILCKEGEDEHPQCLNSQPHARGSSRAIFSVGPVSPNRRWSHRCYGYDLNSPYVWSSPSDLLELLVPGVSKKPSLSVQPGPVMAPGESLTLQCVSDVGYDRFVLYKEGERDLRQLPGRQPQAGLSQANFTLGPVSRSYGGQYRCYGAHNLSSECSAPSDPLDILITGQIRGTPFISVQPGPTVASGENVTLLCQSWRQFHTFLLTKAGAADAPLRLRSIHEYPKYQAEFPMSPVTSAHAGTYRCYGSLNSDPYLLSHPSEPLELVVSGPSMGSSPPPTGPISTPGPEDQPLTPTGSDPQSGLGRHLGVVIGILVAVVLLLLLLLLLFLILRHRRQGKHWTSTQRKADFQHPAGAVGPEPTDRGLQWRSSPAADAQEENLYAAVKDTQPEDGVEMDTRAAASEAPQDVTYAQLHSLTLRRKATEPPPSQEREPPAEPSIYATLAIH

ILT2-PILRβ chimera on NFAT-GFP reporter cells, sequence (Q8NHL6 24-461, change not shown): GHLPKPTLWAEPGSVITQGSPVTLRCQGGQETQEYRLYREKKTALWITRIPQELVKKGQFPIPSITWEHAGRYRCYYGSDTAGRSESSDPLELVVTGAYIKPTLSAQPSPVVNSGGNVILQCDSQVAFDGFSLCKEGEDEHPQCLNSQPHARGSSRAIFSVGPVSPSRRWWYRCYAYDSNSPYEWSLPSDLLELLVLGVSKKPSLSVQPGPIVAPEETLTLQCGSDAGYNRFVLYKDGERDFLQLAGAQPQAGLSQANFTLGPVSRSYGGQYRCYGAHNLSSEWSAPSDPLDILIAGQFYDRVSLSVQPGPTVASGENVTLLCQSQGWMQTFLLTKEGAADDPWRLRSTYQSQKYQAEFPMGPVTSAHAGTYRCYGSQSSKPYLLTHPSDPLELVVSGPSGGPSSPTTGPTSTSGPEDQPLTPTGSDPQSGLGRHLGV

MFI of GFP at 100 ng/ml immobilized ligand (NFAT-GFP reporter) [1] | percentage of GFP-positive cells at 100 ng/ml immobilized ligand (NFAT-GFP reporter) [1] | fold increase of IL-6 transcript in ILT4-positive BMDCs (gene array) [2] | mean fluorescent intensity (MFI) of GFP at 100 ng/ml immobilized ligand (NFAT-GFP reporter) [1] | Substance
9.9 MFI | 56.8% | 8.9 fold | – | HLA-G5 dimer (from UniProt P17693 25-338; P61769 21-119) (ligand)
– | 5.6% | – | 7.8 MFI | HLA-G5 monomer (from UniProt P17693 25-338; P61769 21-119) (ligand)
– | – | 9.3 fold | – | HLA-G1 tetrameric complexes (from UniProt P17693 25-300; P61769 21-119) (ligand)
